Reference: publication PMC9613699

Assay: western blot, endogenous PD-L1 in RBMS1-depleted MDA-MB-231, ±IFN-γ
Conditions: glycan lost; control: untreated

PD-L1 (programmed death ligand 1; B7-H1, CD274): tunicamycin
other: dependence of PD-L1 protein level on RBMS1: abolishes
